± gives the uncertainty stated by the source.

First the molecules themselves.
B1: Cytoplasmic polyadenylation element-binding protein 2, residues 513 to 575; numbered along this chain, Q7Z5Q1 (parent)
chain: KRVEVKPYVLDDQMCDECQGARCGGKFAPFFCANVTCLQYYCEFCWANIHSRAGREFHKPLVK

In the series the parent is B1. As to the kind of experiment: abundance fitness (aPCA) (normalised: wild type 0, dead -1); higher = more abundant; growth selection in yeast, the domain comes from the species named. Conditions: Homo sapiens.
For KRHEVKPYVLDDQMCDECQGARCGGKFAPFFCANVTCLQYYCEFCWANIHSRAGREFHKPLVK [V3H], the abundance fitness was -0.039 ± 0.079. Turning to KRLEVKPYVLDDQMCDECQGARCGGKFAPFFCANVTCLQYYCEFCWANIHSRAGREFHKPLVK [V3L], the abundance fitness is -0.156 ± 0.043. Under KREEVKPYVLDDQMCDECQGARCGGKFAPFFCANVTCLQYYCEFCWANIHSRAGREFHKPLVK [V3E] stands 0.084 ± 0.043; under KRKEVKPYVLDDQMCDECQGARCGGKFAPFFCANVTCLQYYCEFCWANIHSRAGREFHKPLVK [V3K], 0.112 ± 0.063; under KRPEVKPYVLDDQMCDECQGARCGGKFAPFFCANVTCLQYYCEFCWANIHSRAGREFHKPLVK [V3P], -0.028 ± 0.056.

Take KRCEVKPYVLDDQMCDECQGARCGGKFAPFFCANVTCLQYYCEFCWANIHSRAGREFHKPLVK [V3C]: the abundance fitness was -0.945 ± 0.13. Take KRDEVKPYVLDDQMCDECQGARCGGKFAPFFCANVTCLQYYCEFCWANIHSRAGREFHKPLVK [V3D]: the abundance fitness stood at 0.107 ± 0.071. For the variant KRMEVKPYVLDDQMCDECQGARCGGKFAPFFCANVTCLQYYCEFCWANIHSRAGREFHKPLVK [V3M], the abundance fitness was -0.091 ± 0.077. For the variant KRGEVKPYVLDDQMCDECQGARCGGKFAPFFCANVTCLQYYCEFCWANIHSRAGREFHKPLVK [V3G], the abundance fitness was -0.1 ± 0.033. With KRFEVKPYVLDDQMCDECQGARCGGKFAPFFCANVTCLQYYCEFCWANIHSRAGREFHKPLVK [V3F], the abundance fitness was -0.197 ± 0.08. For KRIEVKPYVLDDQMCDECQGARCGGKFAPFFCANVTCLQYYCEFCWANIHSRAGREFHKPLVK [V3I], the abundance fitness was -0.041 ± 0.052. As for KRAEVKPYVLDDQMCDECQGARCGGKFAPFFCANVTCLQYYCEFCWANIHSRAGREFHKPLVK [V3A], the abundance fitness was determined as 0.059 ± 0.055. For KRNEVKPYVLDDQMCDECQGARCGGKFAPFFCANVTCLQYYCEFCWANIHSRAGREFHKPLVK [V3N], the abundance fitness is -0.207 ± 0.096. On to KMVEVKPYVLDDQMCDECQGARCGGKFAPFFCANVTCLQYYCEFCWANIHSRAGREFHKPLVK [R2M], for which the abundance fitness is -0.012 ± 0.051. Turning to KQVEVKPYVLDDQMCDECQGARCGGKFAPFFCANVTCLQYYCEFCWANIHSRAGREFHKPLVK [R2Q], the abundance fitness was -0.028 ± 0.071.

On to KTVEVKPYVLDDQMCDECQGARCGGKFAPFFCANVTCLQYYCEFCWANIHSRAGREFHKPLVK [R2T], for which the abundance fitness was -0.115 ± 0.049. Consider KAVEVKPYVLDDQMCDECQGARCGGKFAPFFCANVTCLQYYCEFCWANIHSRAGREFHKPLVK [R2A], for which the abundance fitness was -0.096 ± 0.06.

In the case of KHVEVKPYVLDDQMCDECQGARCGGKFAPFFCANVTCLQYYCEFCWANIHSRAGREFHKPLVK [R2H], the abundance fitness is -0.319 ± 0.088. With KEVEVKPYVLDDQMCDECQGARCGGKFAPFFCANVTCLQYYCEFCWANIHSRAGREFHKPLVK [R2E], the abundance fitness turned out to be 0.067 ± 0.083. The result for KIVEVKPYVLDDQMCDECQGARCGGKFAPFFCANVTCLQYYCEFCWANIHSRAGREFHKPLVK [R2I] reads 0.048 ± 0.065; that for KDVEVKPYVLDDQMCDECQGARCGGKFAPFFCANVTCLQYYCEFCWANIHSRAGREFHKPLVK [R2D], 0.001 ± 0.14; that for KPVEVKPYVLDDQMCDECQGARCGGKFAPFFCANVTCLQYYCEFCWANIHSRAGREFHKPLVK [R2P], 0.015 ± 0.068. Turning to KKVEVKPYVLDDQMCDECQGARCGGKFAPFFCANVTCLQYYCEFCWANIHSRAGREFHKPLVK [R2K], the abundance fitness came out at 0.101 ± 0.058. In the case of KVVEVKPYVLDDQMCDECQGARCGGKFAPFFCANVTCLQYYCEFCWANIHSRAGREFHKPLVK [R2V], the abundance fitness is -0.187 ± 0.057.

Take KYVEVKPYVLDDQMCDECQGARCGGKFAPFFCANVTCLQYYCEFCWANIHSRAGREFHKPLVK [R2Y]: the abundance fitness is -0.513 ± 0.095. In the case of KLVEVKPYVLDDQMCDECQGARCGGKFAPFFCANVTCLQYYCEFCWANIHSRAGREFHKPLVK [R2L], the abundance fitness was -0.363 ± 0.053. For KGVEVKPYVLDDQMCDECQGARCGGKFAPFFCANVTCLQYYCEFCWANIHSRAGREFHKPLVK [R2G], the abundance fitness is -0.077 ± 0.073. For KCVEVKPYVLDDQMCDECQGARCGGKFAPFFCANVTCLQYYCEFCWANIHSRAGREFHKPLVK [R2C], the abundance fitness is -0.229 ± 0.092.

Consider HRVEVKPYVLDDQMCDECQGARCGGKFAPFFCANVTCLQYYCEFCWANIHSRAGREFHKPLVK [K1H], for which the abundance fitness was -0.599 ± 0.23. Turning to TRVEVKPYVLDDQMCDECQGARCGGKFAPFFCANVTCLQYYCEFCWANIHSRAGREFHKPLVK [K1T], the abundance fitness is -0.036 ± 0.078. Under FRVEVKPYVLDDQMCDECQGARCGGKFAPFFCANVTCLQYYCEFCWANIHSRAGREFHKPLVK [K1F] stands -0.292 ± 0.11; under QRVEVKPYVLDDQMCDECQGARCGGKFAPFFCANVTCLQYYCEFCWANIHSRAGREFHKPLVK [K1Q], -0.248 ± 0.09; under VRVEVKPYVLDDQMCDECQGARCGGKFAPFFCANVTCLQYYCEFCWANIHSRAGREFHKPLVK [K1V], -0.509 ± 0.087.

Consider DRVEVKPYVLDDQMCDECQGARCGGKFAPFFCANVTCLQYYCEFCWANIHSRAGREFHKPLVK [K1D], for which the abundance fitness is -0.01 ± 0.066.

Take GRVEVKPYVLDDQMCDECQGARCGGKFAPFFCANVTCLQYYCEFCWANIHSRAGREFHKPLVK [K1G]: the abundance fitness is -0.218 ± 0.053. For the variant NRVEVKPYVLDDQMCDECQGARCGGKFAPFFCANVTCLQYYCEFCWANIHSRAGREFHKPLVK [K1N], the abundance fitness worked out at 0.143 ± 0.078. ERVEVKPYVLDDQMCDECQGARCGGKFAPFFCANVTCLQYYCEFCWANIHSRAGREFHKPLVK [K1E]: the abundance fitness stood at 0.038 ± 0.063. Turning to IRVEVKPYVLDDQMCDECQGARCGGKFAPFFCANVTCLQYYCEFCWANIHSRAGREFHKPLVK [K1I], the abundance fitness was -0.215 ± 0.21. The result for YRVEVKPYVLDDQMCDECQGARCGGKFAPFFCANVTCLQYYCEFCWANIHSRAGREFHKPLVK [K1Y] reads -0.236 ± 0.088; that for LRVEVKPYVLDDQMCDECQGARCGGKFAPFFCANVTCLQYYCEFCWANIHSRAGREFHKPLVK [K1L], -0.417 ± 0.074; that for MRVEVKPYVLDDQMCDECQGARCGGKFAPFFCANVTCLQYYCEFCWANIHSRAGREFHKPLVK [K1M], -0.184 ± 0.084.

Turning to WRVEVKPYVLDDQMCDECQGARCGGKFAPFFCANVTCLQYYCEFCWANIHSRAGREFHKPLVK [K1W], the abundance fitness is -0.985 ± 0.17. For the variant RRVEVKPYVLDDQMCDECQGARCGGKFAPFFCANVTCLQYYCEFCWANIHSRAGREFHKPLVK [K1R], the abundance fitness was -0.216 ± 0.052.

The values are drawn from the Human Domainome abundance scans (Beltran et al. 2025).
